Reference: the supplement of paper PMC12764529
± gives the half width of the 95% confidence interval.

Experiments:
[1] = folding stability dG unfold from trypsin proteolysis; higher = more stable
How it was run: (§1)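 K50 was inferred by Bayesian fitting of sequencing counts obtained after protease digestion of designed mini-proteins. Unfolding free energy was derived by comparison with a sequence-predicted unfolded-state K50 and a shared folded-state K50, for each protease or both combined. The mini-proteins were under 80 residues, had no cysteine, were carried in a PA-tagged cDNA display construct, and were kept only if AlphaFold2 dimer inter-PAE exceeded 15.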

[2] = folding stability dG unfold from chymotrypsin proteolysis; higher = more stable
How it was run: as §1

[3] = folding stability dG unfold (combined trypsin and chymotrypsin); higher = more stable
How it was run: as §1

| Sequence | folding stability dG unfold [1] | folding stability dG unfold [2] | folding stability dG unfold [3] |
| --- | --- | --- | --- |
| SAGGSAGGSAGMTYRVRIENADGEVVTIEISADELREKGLTLEELLPPNARIVEVEEVEPSAGGSAGGSAGG [r11_829_TrROS_Hall] | 3.8 ± 0.16 kcal/mol | 3.61 ± 0.063 kcal/mol | 3.63 ± 0.09 kcal/mol |
| SAGGSAGGSAGMVDKKTGKPVEKVKVIIRNKNGKKEEKEVTLEELKELAENLPYEIEFEKSAGGSAGGSAGG [r17_125_TrROS_Hall] | 1.16 ± 0.079 kcal/mol | 0.82 ± 0.1 kcal/mol | 1 ± 0.25 kcal/mol |
| SAGGSAGGSAGMVETVSTTTSVETGPDSTRYTTTTTTVLVTDSSGTPIATTTTTTTTVTASAGGSAGGSAGG [r17_139_JUSTAS] | 1.45 ± 0.051 kcal/mol | 0.314 ± 0.17 kcal/mol | 0.986 ± 0.056 kcal/mol |
| SAGGSAGGSAGMVIELPDGRKAIIVKYDKETKRFYVEIVDKKTGEKKIYEFKSLEEALKASAGGSAGGSAGG [r17_300_TrROS_Hall] | 2.18 ± 0.16 kcal/mol | 2.86 ± 0.092 kcal/mol | 2.79 ± 0.15 kcal/mol |
| SAGGSAGGSAGMVITLPNGEKVEITFDKENKKITITFPDGKKVEIEIEGMSLEEILKALKSAGGSAGGSAGG [r11_729_TrROS_Hall] | 3.84 ± 0.14 kcal/mol | 3.22 ± 0.075 kcal/mol | 3.59 ± 0.089 kcal/mol |
| SAGGSAGGSAGMVLPRPDGSLVVITEHPDGTVTVTFAPPDKPITIEVPKEEPVDIRVFPLSAGGSAGGSAGG [r11_164_TrMRF] | 1.39 ± 0.043 kcal/mol | 0.324 ± 0.087 kcal/mol | 1.02 ± 0.046 kcal/mol |
| SAGGSAGGSAGMVTETTVSRLPDGTVTTTTTEYVVHPDGSLEPVRERTTTTPVPPDVPAASAGGSAGGSAGG [r11_440_JUSTAS] | 0.396 ± 0.051 kcal/mol | 1.142 ± 0.011 kcal/mol | 0.897 ± 0.037 kcal/mol |
| SAGGSAGGSAGMVTRRMTPEEAEKFIADLPSDWSVEEISPLPENDIVEIKIKVEPPFKLQSAGGSAGGSAGG [r17_98_JUSTAS] | -0.199 ± 0.09 kcal/mol | 1.76 ± 0.035 kcal/mol | 1.28 ± 0.097 kcal/mol |
| SAGGSAGGSAGMVVSVDRATGTFTATDPALGTTTTVPGSEEEVRAYWAERFPDRPVTITASAGGSAGGSAGG [r11_614_JUSTAS] | -0.00347 ± 0.076 kcal/mol | -0.221 ± 0.38 kcal/mol | -0.0207 ± 0.15 kcal/mol |
| SAGGSAGGSAGMYVYKITYPTPSGGASEKLYPSSVPLEEVLKEAEERGAVEIEILPESELSAGGSAGGSAGG [r11_490_JUSTAS] | 0.103 ± 0.1 kcal/mol | 0.151 ± 0.19 kcal/mol | 0.115 ± 0.23 kcal/mol |
| SAGGSAGGSAGNDVINKKYTYTITETTEEKTPTDDPVSTTITTPIEITVKAPKDEVVIPDSAGGSAGGSAGG [r11_174_JUSTAS] | -0.6 ± 0.15 kcal/mol | 0.644 ± 0.25 kcal/mol | 0.31 ± 0.22 kcal/mol |
| SAGGSAGGSAGNSVTILPIPETDKYLVVVSDNSGKFTVFDVDSSDLEDVVKALPSNYTVTSAGGSAGGSAGG [r11_569_TrMRF] | 0.881 ± 0.025 kcal/mol | 1.13 ± 0.051 kcal/mol | 1.04 ± 0.048 kcal/mol |
| SAGGSAGGSAGPDKPIYVMIKFEHPGRKYTHSFEFDSPEDIEEVLDRLPPGYEIKEVEIFSAGGSAGGSAGG [r17_410_TrROS] | 0.0221 ± 0.1 kcal/mol | 0.946 ± 0.25 kcal/mol | 0.482 ± 0.2 kcal/mol |
| SAGGSAGGSAGPEIELREDSLVIRVKAKEGEVIGVPEGLEVEGVVYDPSTGELTVVVRAPSAGGSAGGSAGG [r11_942_TrMRF] | 2.31 ± 0.23 kcal/mol | 1.73 ± 0.096 kcal/mol | 1.83 ± 0.21 kcal/mol |
| SAGGSAGGSAGPEILIVVESEEEAKKLAEELARALREAGLPEDAKIKIKIIVLPKEELEKSAGGSAGGSAGG [r17_180_TrROS_Hall] | 1.76 ± 0.062 kcal/mol | 2.33 ± 0.048 kcal/mol | 2.12 ± 0.066 kcal/mol |
| SAGGSAGGSAGPGVLILRRRFVRPRLIPNTGKLYYEEVELTTNLPIGPIPPNWLNNPNGVSAGGSAGGSAGG [r17_493_TrMRF] | -0.0517 ± 0.15 kcal/mol | 0.0547 ± 0.11 kcal/mol | 0.0971 ± 0.14 kcal/mol |
| SAGGSAGGSAGPITVPPGAVLLSVEEEGERTRVTVRLPGSGVVETYTFEPGEPVVVELPGSAGGSAGGSAGG [r11_774_JUSTAS] | 2.27 ± 0.053 kcal/mol | 2.941 ± 0.016 kcal/mol | 2.75 ± 0.043 kcal/mol |
| SAGGSAGGSAGPITYRLEIRYEIERIEVRVYPGPEGPLVGEFRIEVRLEVRVEALPPEETSAGGSAGGSAGG [r11_24_TrMRF] | 3.69 ± 0.17 kcal/mol | 4.88 ± 0.12 kcal/mol | 4.53 ± 0.16 kcal/mol |

| Sequence | folding stability dG unfold [1] | folding stability dG unfold [2] | folding stability dG unfold [3] |
| --- | --- | --- | --- |
| SAGGSAGGSAGPIVLIKIKNKNGKEIEIEMSLEELKKKLPKELKNMKVEIVEVKEVKVEKSAGGSAGGSAGG [r11_353_TrROS_Hall] | 0.351 ± 0.088 kcal/mol | 0.315 ± 0.14 kcal/mol | 0.56 ± 0.27 kcal/mol |
| SAGGSAGGSAGPIVYPYGKYLVVYNPETGALVVVELDPDGKVKKVVVFGKDGPLVELDDASAGGSAGGSAGG [r17_385_TrMRF] | 2.76 ± 0.067 kcal/mol | 3.369 ± 0.022 kcal/mol | 3.14 ± 0.047 kcal/mol |
| SAGGSAGGSAGPKILSIEEYDPENGYITVIAELTGKPVRMKVKFIPGKKEIKIIEIEPLDSAGGSAGGSAGG [r11_1066_TrMRF] | 1.81 ± 0.07 kcal/mol | 2.49 ± 0.036 kcal/mol | 2.36 ± 0.1 kcal/mol |
| SAGGSAGGSAGPKPPPVYRLRIVNPDGEVYEFEVPADMSPEEIAKRLGLPPGARVELEKVSAGGSAGGSAGG [r11_340_TrROS_Hall] | 2.59 ± 0.17 kcal/mol | 3.35 ± 0.081 kcal/mol | 3.28 ± 0.28 kcal/mol |
| SAGGSAGGSAGPKVVLVPVKVVQKLLGVKIPENSRVLVLLEKDKVKAVLVFPVLPSPENPSAGGSAGGSAGG [r11_616_TrMRF] | 1.26 ± 0.12 kcal/mol | 1.55 ± 0.07 kcal/mol | 1.54 ± 0.17 kcal/mol |
| SAGGSAGGSAGPLSTVTETTTTVPLPNGEVLTVTTYTYPDLGVTTVTTTYPDGTVTTTTIPVSAGGSAGGSA [r18_88_JUSTAS] | 2.3 ± 0.077 kcal/mol | 2.544 ± 0.011 kcal/mol | 2.47 ± 0.041 kcal/mol |
| SAGGSAGGSAGPPNVKLTFTIMIMEMKMEPPPDGNPKMEMVMVPIEIEITAPPGDEITAISAGGSAGGSAGG [r11_174_TrROS] | 2.41 ± 0.2 kcal/mol | 4 ± 0.44 kcal/mol | 2.93 ± 0.39 kcal/mol |
| SAGGSAGGSAGPPPIEELLEQAKKNPNRPITIRNPGGYYIRITVKPDPNGKPEVEIEPVPSAGGSAGGSAGG [r11_300_TrROS] | 0.259 ± 0.09 kcal/mol | 0.336 ± 0.25 kcal/mol | 0.263 ± 0.16 kcal/mol |
| SAGGSAGGSAGPPVTLDEIRDHLPPENIEDVEVNPPEGWVVIEFKPPGGEKQEITIRADDSAGGSAGGSAGG [r17_374_TrROS] | 0.198 ± 0.062 kcal/mol | 0.271 ± 0.021 kcal/mol | 0.277 ± 0.13 kcal/mol |
| SAGGSAGGSAGPTLTLTLPPGKLSPEFLEALAAQGYTLGEVTVTEVPEDDTVVVTVTTAPSAGGSAGGSAGG [r11_345_JUSTAS] | 1.4 ± 0.069 kcal/mol | 0.623 ± 0.12 kcal/mol | 1.1 ± 0.069 kcal/mol |
| SAGGSAGGSAGPVVISIPETNTLVVLAPLPDDRVLADVFQFDPTTPEPTVFTVPAENISFSAGGSAGGSAGG [r11_285_TrMRF] | 0.76 ± 0.024 kcal/mol | 0.335 ± 0.13 kcal/mol | 0.565 ± 0.099 kcal/mol |
| SAGGSAGGSAGPYVVTIELPSGERIEVAVPAERLEEHVEELKPLVEPARITVRPVAPDALSAGGSAGGSAGG [r11_103_TrMRF] | 0.143 ± 0.02 kcal/mol | 0.477 ± 0.018 kcal/mol | 0.376 ± 0.053 kcal/mol |
| SAGGSAGGSAGRMLVIEIEMPGRKRTFMIPTPDGPPIKAEELADKLGFDNVTVKIHPIDDSAGGSAGGSAGG [r11_219_TrROS] | -0.12 ± 0.55 kcal/mol | 0.261 ± 0.31 kcal/mol | 0.0664 ± 0.16 kcal/mol |
| SAGGSAGGSAGRRRVFFTPDGTLIVVDELPDFVRVTRYRITPGFPRIEPVDTRVLPPGALSAGGSAGGSAGG [r11_844_TrMRF] | 1.11 ± 0.18 kcal/mol | 2.94 ± 0.086 kcal/mol | 2.25 ± 0.16 kcal/mol |
| SAGGSAGGSAGSITFTVPASEFTEEEILERLVEELGIPREKVDLVEIKETPDGKLKVTIKIPSAGGSAGGSA [r18_118_JUSTAS] | 2.86 ± 0.085 kcal/mol | 2.488 ± 0.021 kcal/mol | 2.63 ± 0.06 kcal/mol |
| SAGGSAGGSAGSITLPDGLTLTWNPATNTLTITLTAPPPPTTTTTTKPAATTTTTTTTTTSAGGSAGGSAGG [r11_331_TrROS_Hall] | 2.18 ± 0.086 kcal/mol | 1.77 ± 0.092 kcal/mol | 1.87 ± 0.14 kcal/mol |
| SAGGSAGGSAGSIVLTKTEILPGPENRPIIKTTIYKPPGPITITYPGGDPSKLVIETNSGSAGGSAGGSAGG [r17_64_JUSTAS] | 0.247 ± 0.032 kcal/mol | -0.331 ± 0.37 kcal/mol | 0.0213 ± 0.28 kcal/mol |
| SAGGSAGGSAGSIVTIPIAGLSPEEAEALIKEAIAAGEDKPIILVDEDGTPTVVPASELKSAGGSAGGSAGG [r11_541_JUSTAS] | -0.189 ± 0.052 kcal/mol | -0.408 ± 0.035 kcal/mol | -0.242 ± 0.079 kcal/mol |
